Data reported in the DeepSol protein solubility set.

Assay: soluble on expression in E. coli; label from the status in PepcDB or PDB records

Sequence | soluble on expression in E. coli
DKEWNEKELQKLHCAFASLPKHKPGFWSEVAAAVGSRSPEECQRKYMENPRGKGSQKHVT | soluble
DKVSLKLPKSNGELFEFKWLDHKIAYIALNGFHDKKILQDFNDVYDEIKQSRGLIIDLRFNGGGNSSIAAEILSHFTNKGLEGSIWKNRKHIAAFKAWGNYSGKYKIYAQDNAWESGAMESLKAKENSHIVPTYVLIGRNTASAAEDFLIYADKLKHFTTLGENTYGSTGQPIFFDLPGGGSFRICTKRDTYPDGREFVGYGITPQVIIDRMPEHLRSEKDIVLYSAIKKLKEKI | not soluble
MSLQSDMLAQSDMLACREMIKEGSHTFHAASKVLPRRISDPAIALYAFCRVADDAVDLGLDRAAAVELLKDRLDRACRGVPRAYPSDRAFADVVARFSIPPAIPEALIEGLEWDAQGRRFETLSDLYSYCARVAGTVGVMMTLVMGQRKPDIVARACDLGCAMQLTNIARDIGEDARNGRIYMPLSWMREAGLDPETWLANPKFTPEIASIVKRLIDTADALYDRATLGIANLPRSCRPGIFAARALYAEIGREVERSGLDSVSSRAVVSTGRKLAVLARLLAFQETEWAPAKYLPAKFGDMEETKFLVDAVIAHPVREGHHHHHH | soluble
MITQHLIPDFIAKMTGSTEVQKSAGMKKSSSSQFKDTLDLAVEKSYAWQSGTKSYEYAMDIKDRPYQRLQNKNILDSAETKERRPDRTKPFNKASNQITSRASDKAERTASPEEENIEGENDRKLKGKAMEKALAEVLGISVEELEKLMAQLGINFENADGETGIQEAADKISAYLGLNQDEKMALAEMMSLVQKQVEQAFKDVQSAYDAARYDMKDENEAYGVELFHAETETAVEDTSALRNDLDVSKVSQEVKNKLDEETDGFLKQIAAKVVEVVQKDESTAGLKTVSVNGENIEEIGLKTDVEDIGNVREAKYSSDEKDSADNSGNAGSETSSMASRGVEAESAAKNSNNIQFEAVSNLTVQRATGQAEPDKTRNIIPVTNKEIVEQVVEKAKVVLSGDKSEMVIDLKPEHLGKLELKIVTERGMVVAKFVAENEQVKAALESNMNMLKESLEKQGFLVEGFSVTVGDNKRRENSRDKTNQGTANQRISGEKLQVSDMTGVERMQRIHENIDPYSYGSSSIDLTA | soluble
MHHHHHHSSGRENLYFQGNFDYMFKLLIIGNSSVGKTSFLFRYADDTFTPAFVSTVGIDFKVKTVYRHEKRVKLQIWDTAGQERYRTITTAYYRGAMGFILMYDITNEESFNAVQDWATQIKTYSWDNAQVILVGNKCDMEEERVVPTEKGQLLAEQLGFDFFEASAKENISVRQAFERLVDAICDKMSDS | soluble
GSHMTALDWRSALTADEQRSVRALVTATTAVDGVAPVGEQVLRELGQQRTEHLLVAGSRPGGPIIGYLNLSPPRGAGGAMAELVVHPQSRRRGIGTAMARAALAKTAGRNQFWAHGTLDPARATASALGLVGVRELIQMRRPLRDIPEPTIPDGVVIRTYAGTSDDAELLRVNNAAFAGHPEQGGWTAVQLAERRGEAWFDPDGLILAFGDSPRERPGRLLGFHWTKVHPDHPGLGEVYVLGVDPAAQRRGLGQMLTSIGIVSLARRLGGRKTLDPAVEPAVLLYVESDNVAAVRTYQSLGFTTYSVDTAYALAGTDN | soluble
MGSDKIHHHHHHMNILEYENYHEDKTHVELTFPYNTYLCSIPLDFSGVPLHWHDDMELIYIKKGCGHISVDFKEYHVTAPSLVLILPGQLHSIDQYMDESMEYENIIFSLSMLLPGKYDYTKEDFLTPLLAGRFTVPTVFTPVYPYYEDVVAPIDACDEICKTMPQGYQLYIKSKLYEFFFVLDNRCRNLTKPLKSKKTLDKMKVVLKYVENNYADKISIADIADVAGFSESHFMRYFKETMGTSFVDYLKDYRLTMAARLLQSSDSSVLSISGEVGFESLSYFNRAFKKHYGMTPLQYRKGS | not soluble
MRILNQDNNIAVRNVLLMLTMEEAAELKDDLERLLSKKALNDHSHINDLEYEHELTISLYDENNIEEFDERIKKLIIQDE | not soluble
MGSDKIHHHHHHMYLLDSAIAKQIVSRTMKIIGHNINVMNGQGMILGSGDPKRIGSIHEGALLAIAQNRNVEISQEVAASLHGVKPGINLPLHYQGQIIGVVGITGDPNELTHYGELLKMTAEMIVEQANLQDKLQWENRQREEFILQLIKAETDDRQLHRWAKQLDIDMSMPRVAAIIEISEKSTPIKIPKRPSDPLAIDLADTLQVNASDDRNHRVGETLKQVLHLLQYPDRGNLIAMTSMSQLVILKPAFLDGKQWDPELENQRIDRLLQRLPAQMNLNFKIALGHFFPENGGIARSYQTALETLALGKQLNPEGNKYLFEDYSLQVLLSGLKYDWRGQALAMPYQQLAKADKNGQLRKTLAAYITHFGDAQQCANTLFIHRNTLRYRLDKIQQITQADIQSLHGLLSLYLGQLIDSSKNTG | not soluble
MAQSFLLMGALIQHHLKGEKADLLTPEKLLEAANKQGTVPSRVRYQWMEDEETGRLKAVGYHTSMESGRDQVRVRLLKHDFPNNRYEFWEEGATGPTILWTPDNPGIELPTDTAHGEQPVIPSAIPGLEIPEMDDVSILATPMPDEKDFRDYILVFPENAFPPIYVYLSKKIDTPIWLEHHHHHH | soluble
MSLNVLIIGAGAVGLCLAAKLSNVADVFAVTRERNAKIIRESGFKMTGIWGEGTFNFEASENVPERDFDYIIISSKGLATKSICEQFKDVINGKNVISMQNGVGNEEIILRYTDKVIGGTIITGFEWKGDAKVHVSVEGGPMTVGRFPNGTDKEVTDFVKLIKSSGIPVNETENIQGAIWSKTIYNCALNPLGAVMNVPYGELSNEHSWNIIKNIVSEIFEITSKKGVILPWKTSEEYLKYLKEFQLPNTAAHHSSMLQDISKGNITEIDFLNGAVVTIAKEFGIKTPYNKFITEQIKFLENLKSKKEGHHHHHH | soluble
MSSRKKVRVLLLKNKTVPIDKYELECRSKAFEPIFVPLIKHTHVIQDFRNVLNTIPNYLNTINYIIITSQRTVESLNEAIIPTLTSEQKAALLSKTVYTVGPATANFIRRSGFINVKGGEDAGNGSILADIIIDDLSTDIKACPPSELLFLVGEIRRDIIPKKLHSKGIKVREVVTYKTEELSDGFKRFIHAMKECDEDEVFSDWVVVFSPQGTKEITQYLGDSNRLPGSHLRVASIGPTTKKYLDDNDVTSDVVSPKPDPKSLLDAIELYQRHK | soluble
MLKKKVNNDAGKTFILISSSCSSCQKAIEYFKENNLSYTIENFYKKPISDKRFRDILSLSEDGTESLFSKRADQIRSNTNQSVEDLTIPELIKLIRERPSILRRPIIIQYNSSGIPKRMRIGYNAAEIKVFERSLMEPKVRTVKK | soluble
MSLGIAGTNTVRLQVYTNLKTFKSGDEISDGWVAKFHTDGDYIKWFAIENEDSLEGKEIKLFDTYKVDYTGTIKEKEKGKVTYAVLKAYVAIDPLERQYKELTLGIGDEIEDTAYSIKDVDVEFEPKETYIPKKLTEPITVLDTEIMEQGLENVDSNLILVGGPVVNKVTAALAEDLGVPTTYDEWKEKFGTGADSGQIIYKEKCSKIGGYGVLLVAGTDREGTRAAAEALLEYISKLEGHHHHHH | soluble
MSHGDQLEQYQDQYFDCIKKYDMPAALEVLELIAESCIELNDDDPLIEACERGASYLKCCLKYENLVNLHASQKINDHTLFFLNLEVRRRSTYQCFATTRSFLTPHRKRQLAKTMNAEPRIFAFGLNANNNLGVDTVQSALVDVPTEIYVPPVYEMKMSNFHSVFWCHDGKFFGCGETKNFMISKPDSELPRIVKFPMELDIQIWRNEMIVGIKALENGTLFQTDRRLYFVGDYQKSKAYLKTFHDEEFDMVTQLPYATPNFWITQSRPVSSISAYKLDDKKNVTILRVKSVSYWIQVYPDYWTELNPGYIKKRPVVYLLDDVEVKNIRIETVGCNIIYVVHELTLYFGKMTMTMVENSDGDENNLDNYILFVELHEYRTRSPYLCTGVATNKAQGVLMKCGDFPCVGFDYLEIAENRFRGNVQKYMFETVEKFMESYDVFENDEVSMDYLLSETEKAFNSGVMEQEIKLDWLGRTEKKYRYSNFYSFLGYVSQPRLLTGPPKCFTTDIDTLLTYKDPKLVARHRMKQLFEEFERVNYPGTDVWKPTGFLKSHDIPEEDNLSEGRYRSAAMKWCVNEFMEQFNVYRENPVFNPDNLVYKEILKYLINVIWYALDQWIIITEKTENDRVAPLLREIEHKVPDDEILFQTVYPEKILENRLREGSLKMEDLPEPLNIRVTFLLRHRDPKLKPTRFNLNTCRTFFNFLYPALEDFIDENNVLDLNKLYPDDVAIHRLIAQTYFVGHGLTDLEGSEKYDRSVYDSKGVRLEPMVRFMRKGREHFRGFLRRVPSTSAPGDGPIVFPTADHQAFFKMQRVLYSRLPLTEKLPIDIEDDLYSAAIVGLQDKRVLEVLTMDEKLRILEWYEKAKMPEALMDLLKQCIIESTSKNYYHIRYLFSQYPIMTQRFIAQYRPGIILWHRSPIPNPQIHHVRIITEMWPKNDFERTTRIPRKKFIKNGIVEDSKFYMIGSYLRRDAYKDIHYPAQKTTKLTELFNIDFPVNGPKKSKNQMMLITFPSREIVEEEEPPQEAEQSPSPDPEKIAKRREELRKKIAEKLAASKKKKKR | not soluble
QTLARVDLAYDDYDGIFDCEYAYKAWRDDCFRTAERGRGPVLHEDMTIASIGKDGKPIYTKEQYSIGSRTSRIYWRIYNKALEQKLANTGLVWYRSEVELKKWNVDVLLNPAGAYAALNDFAASISTAKKFNTKPVPTKRAALDLLASAHWMRRQYGKILNSLIEFHEGDIETVVGSLVRDGTKFTFPDTYG | not soluble
MTITPATHAISINPATGEQLSVLPWAGADDIENALQLAAAGFRDWRETNIDYRAEKLRDIGKALRARSEEMAQMITREMGKPINQARAEVAKSANLCDWYAEHGPAMLKAEPTLVENQQAVIEYRPLGTILAIMPWNFPLWQVMRGAVPIILAGNGYLLKHAPNVMGCAQLIAQVFKDAGIPQGVYGWLNADNDGVSQMIKDSRIAAVTVTGSVRAGAAIGAQAGAALKKCVLELGGSDPFIVLNDADLELAVKAAVAGRYQNTGQVCAAAKRFIIEEGIASAFTERFVAAAAALKMGDPRDEENALGPMARFDLRDELHHQVEKTLAQGARLLLGGEKMAGAGNYYPPTVLANVTPEMTAFREEMFGPVAAITIAKDAEHALELANDSEFGLSATIFTTDETQARQMAARLECGGVFINGYCASDARVAFGGVKKSGFGRELSHFGLHEFCNIQTVWKDRI | soluble
QVQLQESGPGLVAPSQSLSITCTVSGFSLTGYGVNWVRQPPGKGLEWLGMIWGDGNTDYNSALKSRLSISKDNSKSQVFLKMNSLHTDDTARYYCARERDFRLDYWGQGTTLTVSS | soluble
MGSDKIHHHHHHMNKTITIDPVTRIEGHARVFIDLDDGGALKAAGLVVNELRGFEKILTGMDADRMPLVTARICGVCPTAHHLAATNALDNAAGVEPPTAAKLLRELMYMGHLIHSHCLSLFVLQGPDLVLGLDADPAIRNVVGVVQAVPDIARKALQCRSIGQKINELVGGRGTHPVTSVAGGIAFVLDADRERQLNAWIQEAHGLVLELAPVVKQLLMKMLDANPAMLEQWVIPAWSVGTVKGDGTIALVNGEIRAIDESGARKAQFPTAGYDTHLSEAAVDFSYMKQVSFVEGETRHDYRVGPLARLNISDRYGTPLADREREEFIRTVGRPCHANALQPWARLIELLYCTERAQEIMASPEIHGETRVPVKFSGGRGVGHVEAPRGTLIHDYEIDENGIVRAANLIVATQQNYALINTMIAQAATSHVINRPDDQALLNAVEFGIRCYDPCLSCATHALGAMPLEIVVNRADRPHLIRRNC | not soluble
